Test results reported in the DeepSol protein solubility set.

Assay: soluble on expression in E. coli; label from the status in PepcDB or PDB records

Row | Sequence | soluble on expression in E. coli
1 | EKKYFEIHGVPSIIWGNPSSKLYIYIHGQCGNKEEAEAFANIAVPHECQVLSVDLPEHGERKREKNSFNPWHVVPELVSIMEYAKCHWNQISLYANSIGAWFSMLSFEKENLRECIFVSPILDMQQLISNMMLWANVSEEQLKHELIIPTSFGHTLSWEYLQYVKQHPITQWNVPTKILYGKHDELTEIGVVEKFVEKFNCNLTIIENGKHWFNTPQELNSLYEWLNTLVK | not soluble
2 | AQGQQGQVRLLCNTAALTEYLPELLASYLAENPGVSVDVQELPSLRIVQAITQGMADLGIVSTAAPSEHLQTRPFRDDPLVLVTPQAHPLASALAPSFVDSLAHGYVGLGAGSALGLYLEEQALHEGQRMQVRVRAEGFDGV | not soluble
3 | MVDIIIAEHAGFCFGVKRAVKLAEESLKESQGKVYTLGPIIHNPQEVNRLKNLGVFPSQGEEFKEGDTVIIRSHGIPPEKEEALRKKGLKVIDATCPYVKAVHEAVCQLTREGYFVVLVGEKNHPEVIGTLGYLRACNGKGIVVETLEDIGEALKHERVGIVAQTTQNEEFFKEVVGEIALWVKEVKVINTICNATSLRQESVKKLAPEVDVMIIIGGKNSGNTRRLYYISKELNPNTYHIETAEELQPEWFRGVKRVGISAGASTPDWIIEQVKSRIQEICEGQLVSSRSHHHHHH | soluble
4 | MVKAEFGLYSATGGRVLVWLEQIHVQPLELLSTDERIRRQSIGVTILWNNILVMIQCDGNILPQKHQGFYRFHCEFQQRSLHTAEHLMSFMDEGS | not soluble
5 | MSSAGEANCAMIGGSLSAARQLDGSVIGMCALPNGKRCSEQSLAAGSCGSY | not soluble
6 | MLDVPHGKFGFTKGCIIAVILLSLSRTLNRGQLNLERFEFWQPTSQLLALDVCLRDAFALEHHHHHH | not soluble
7 | GMKFSKFGQKFTQPTGISQLMDDLGDALKSDQPVNMLGGGNPAKIDAVNELFLETYKALGNDNDTGKANSSAIISMANYSNPQGDSAFIDALVGFFNRHYDWNLTSENIALTNGSQNAFFYLFNLFGGAFVNEHSQDKESKSVDKSILLPLTPEYIGYSDVHVEGQHFAAVLPHIDEVTHDGEEGFFKYRVDFEALENLPALKEGRIGAICCSRPTNPTGNVLTDEEMAHLAEIAKRYDIPLIIDNAYGMPFPNIIYSDAHLNWDNNTILCFSLSKIGLPGMRTGIIVADAKVIEAVSAMNAVVNLAPTRFGAAIATPLVANDRIKQLSDNEIKPFYQKQATLAVKLLKQALGDYPLMIHKPEGAIFLWLWFKDLPISTLDLYERLKAKGTLIVPSEYFFPGVDVSDYQHAHECIRMSIAADEQTLIDGIKVIGEVVRELYDNK | soluble
8 | MEITLNSGFKMPIIGLGVWRMEKEELRDLIIDAIKIGYRHLDCAANYKNEAEVGEALTEAFTTGLVKREDLFITTKLWSSDHGHVIEACKDSLKKLQLDYLDLFLVHIPIATKHTGIGTTDSALGDDGVLDIDTTISLETTWHDMEKLVSMGLVRSIGISNYDVFLTRDCLAYSKIKPAVNQIETHPYFQRDSLVKFCQKHGICVTAHTPLGGATANAEWFGTVSCLDDPVLKDVAEKYKQTVAQIVLRWGIQRNTVVIPKTSKPERLEENFQVFDFQLSKEDMEVIKSMERNYRTHQTAKFWGIELYA | soluble
9 | MKIKAIEPTPSPNTMKVILNEVLPSGARNNYTNENKEQAPMQVQEILKIEGIKGVYHVADFLAVERNAKYDWKVLLQQVRAVFGEEVLEESEEQQLAHFGEVKVFVQMFFTIPMQVKLTDGTTEERVGLPDRFKESIMKVQMSAPNVVKERKWVEQSTRYGNFEEIGKEVVEEIVAAYSEERVNETVKELLNQAGAVEVTIQKREPYKVTEEMMKDSDWKNRFAALEQMDPTEEDIPVLKMALDDEKVSIRRLATAYLGMVKGDEVLPLLYKALLDRSVSVRRTAGDCLSDVGDPAAMFVMIKSLKDPSKLVRWRAAMFLFELGDESAIPALKAAQDDPEFEVAMQARLALERIEGGEEAKGSVWKQMTESRKGE | not soluble
10 | MGHHHHHHSHMSFTTRSTFSTNYRSLGSVQAPSYGARPVSSAASVYAGAGGSGSRISVSRSTSFRGGMGSGGLATGIAGGLAGMGGIQNEKETMQSLNDRLASYLDRVRSLETENRRLESKIREHLEKKGPQVRDWSHYFKIIEDLRAQIFANTVDNARIVLQIDNARLAADDFRVKYETELAMRQSVENDIHGLRKVIDDTNITRLQLETEIEALKEELLFMKKNHEEEVKGLQAQIASSGLTVEVDAPKSQDLAKIMADIRAQYDELARKNREELDKYWSQQIEESTTVVTTQSAEVGAAETTLTELRRTVQSLEIDLDSMRNLKASLENSLREVEARYALQMEQLNGILLHLESELAQTRAEGQRQAQEYEALLNIKVKLEAEIATYRRLLEDGEDFNLG | soluble
11 | MGSDKIHHHHHHMLLIDTHAHVLSPDRTTFPRDYGLDMAWARGDLSAQQLVAAMDESSISKTLLIQAYSAYRYDNSYLESVIGEFPDRFAGVCMVDPLARDVSDRLTSLIVDRKFAGTRIVIVQPEPRLDDPAMAPFYETCAELRTPLCVLTIPPKLKELEVPLSQWPSLQVVVEHLGLIHTASGDSVSKERPLLDLARFPNCILKFSTISLRVAAAFEGGAQGQFERLIDAFGAQRLMWGSDYPSTPEGGIPGLVNEMHQALDFLPHHDLALLSGEAACRIWSTLRPVSSRGLA | not soluble
12 | MAHHHHHHMRASTPPLYQRQPEGLAPSYNTGLPLAMPDVPTLRIPQHLSATSHAMPPTAAAQGEFVMAATAPRLGSLETSTRATNPAPFITQFPAAQAPNLHGYVSASPRTSGTGTETSASDYFRYAANLMRNTLPPPMTELAALEEEEKSLKREEEELRPQIIELERMREQLEEQTQKVAVELMQMVVLEQQYYVEPIVDYTAQIKNAEVQCVHLASRVEEAKHSLEELQRQHQSYDAVMEEKERLKKETCAVRERFATLENRRRLCMLQSEALFDVESRRGEEAASQAEETENQLMEMRNNEPLLGIKRSRRSSRSMSRGVSFAQKSIVLDTGSDGDDDGYARSTRHTGDTVSGLTQRGSWNSAGAEDEESEQDCDRDDICGISGQSVRYSLNDTKRVQLVVPAV | not soluble
13 | MIFCTVGSGIEGYEQSFSKISVEGYDTSVHEFPLKLALAKHFASCGKIVDIDVPRDFKKRILKSPLFIIFHAKEGESPVDKALELSGTDVGGWNVVVKSLPGQQMYRDPGGVDRFKGERTLIVKVYDTPSTLSKIDLQIGLCKHFSSCGEVTGISVLVHGNLCCHESKARVDIMGKGCVDKALELSGRTADGWKIVVYFVVPPAGRKLKPTGSGHPTIGVERMKKAELKKKAKMEMMDKGKKKRKTTE | not soluble
14 | MAHHHHHHMTTERPCGERNGHTHSSSAADGTFDQPDTAVLLYGGLPPMPKPSVQRGEGSMEREFDQAAVSPSPVAAVAASSVVGGDTSPGSSPHIGVHEADDPTKNFDNSTEEEHMDLFISAMSPQNCVDRPQRRARGALMPPLPSPGEADAGAMMQSEMHTTPMTKTHTPDLRVTMYENQELRRELATVRASLRQALQTIETRELECVELHRLVDEMQAQLNGLKPEANLRPTQTDAQGNGEGSTRPEKSAFKLQATKDTTGPQIIGKYESKEEWRMTPSRELFAAEVKHDAHTEASTTTAIAAVKMNATDAPTTVEETISMGQLCEERDRLAKELAQTKIVVAEQETVLDRLGLRFPYPGALVAAARRTIPAFEPLRKSRKQKPGPLVVDRTTQMRGERAERRE | not soluble
15 | GPGSMQTAHAHTMTAQMKVLKPKTVFDNRPDEARKPIKLILLGDSAVGKSKLVERFLMQRYIPVQMSTYALTLYRYDFVTEDGEEVDVDIWDTAGQERFATVHPSYYHDAHACILVFDSTRKATYKNLEKWLSEMRVYREHIPCLVACNKIDTDPSVTTKSFAFAEKHNFPLYYVSAADGSNVVQLFESAISTAAAYKKNPAKDDFMTQVIGILKEDKTAAGASAVSS | soluble
16 | MGSDKIHHHHHHMGNIEIKRVIAHHMDLGATKPTFLNNVIDISQEEMQDVIVFFGNHVKKALTTAQLKTCVFKNEDDEVYKYCKELAEDQSDDKLFVRVTRRMTIKLFYNMKRTSSTSSATLIFLHYFNVDSGKDYLGILKMDPNDGIELDPERVVFKVRKHMLPNVKERLHKSAFIKLDEKLFAEESHLYVLDKQQKMDGISKFFLEAFLNAKEVNSDKKTTAFFNTAVMEVARSEKVPNMFAIAKKVSDSMTEGKYIKVDSMLEEVLHDFIPGEEDRFDFIERVKQQMKKKNEDVQFEFTVEKEKEAISFLHNDDKSIQLRFKSILLGTDVFYDEEEDEDGNKFIVLKIREKNIESNFEFKK | not soluble
